From patent US20250340613A1 (JOINT STOCK COMPANY BIOCAD, published 2025)

How the values were obtained:
[1] = biological target: T1, extracellular domain of the human PD-1 protein (hPD1ex-H6F) (Homo sapiens, UniProt Q15116 21-170); test: BLI Octet RED 384; antibody on ProA sensor, antigen in solution; 1:1 global fit
T1 construct: Molecular weight 20.6 kDa; made in CHO cells; also called hPDlex-H6F; not shown: C-terminal His and FLAG tags
Method: The experiments were carried out using a kinetic buffer solution (hereinafter referred to as 1×KB) having the following formulation: 4.3 mM Na₂HPO₄; 136.9 mM NaCl, 1.5 mM KH₂PO₄; 2.7 mM KCl; the volume fraction of the added Tween 20 was 0.1%; the mass fraction of the added BSA (bovine serum albumin) was 0.1%; pH 7.4. Before the measurement, the ProA sensors were regenerated with a solution of 50 mM glycine and hydrochloric acid, pH 1.8 (5 seconds in the regenerating solution, 5 seconds in 1×KB, three repetitions). In the case of the hPD1ex-H6F and hCSF1R_His antigens, the Protein A (ProA) biosensors (ForteBio) were immersed in a solution with antibodies at a concentration of 10 μg/ml for 60 seconds to immobilize same. The baseline was recorded in 1×KB for 60 seconds. The sensors loaded with the antibody were then immersed into wells containing a solution of the target antigen (analyte) in a kinetic buffer for 90 seconds. Measurements were performed for solutions with hPDlex-H6F analyte at concentrations of 2.50 μg/ml (121.4 nM), 1.25 μg/ml (60.7 nM), 0.625 μg/ml (30.35 nM). […] Then we detected complex dissociation in 1×KB for 210 s for hPDlex-H6F, 300 s for hCSF1R_His.
All measurements were carried out at 30° C., orbital mixing speed was 1,000 revolutions per minute.
To obtain numerical values of kinetic constants (kₒₙ is the on/association rate constant, kdis is the dissociation rate constant, KD is the equilibrium dissociation constant or affinity constant), the resulting sensograms were processed according to the 1:1 interaction model using Global Fit (selection of one set of kon, kdis, KD constants to analyze several sensograms of different concentrations) of the ForteBio Octet Data Analysis 9.0 software.

[2] = biological target: T2, hIL4R-His, Interleukin-4 receptor subunit alpha (Homo sapiens) aa 27-227 (Homo sapiens, UniProt P24394 27-227); test: BLI Octet RED 384; antibody on ProA sensor, antigen 30 ug/ml
T2 construct: range 27-227; not shown: His tag as the name implies
T2 sequence (looked up): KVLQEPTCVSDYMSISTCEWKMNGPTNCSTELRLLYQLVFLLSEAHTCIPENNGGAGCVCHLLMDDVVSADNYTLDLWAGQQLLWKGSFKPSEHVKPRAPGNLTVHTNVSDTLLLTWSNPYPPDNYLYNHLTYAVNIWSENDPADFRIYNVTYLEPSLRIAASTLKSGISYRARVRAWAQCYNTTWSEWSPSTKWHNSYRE

[3] = biological target: T3, extracellular domain of the human CSF1R protein (hCSF1R_His) (Homo sapiens, UniProt P07333 20-512); test: as above
T3 construct: range 20-512; Molecular weight 57.4 kDa; made in CHO cells; also called hCSF1_His; not shown: C-terminal His and FLAG tags

[4] = biological target: T4, Her3-H6F, Receptor tyrosine-protein kinase erbB-3 (Homo sapiens) aa 21-643 (Homo sapiens, UniProt P21860 21-643); test: as above
T4 construct: not shown: His and FLAG tags implied by the name 'H6F'
T4 sequence (P21860 21-643 limits assumed): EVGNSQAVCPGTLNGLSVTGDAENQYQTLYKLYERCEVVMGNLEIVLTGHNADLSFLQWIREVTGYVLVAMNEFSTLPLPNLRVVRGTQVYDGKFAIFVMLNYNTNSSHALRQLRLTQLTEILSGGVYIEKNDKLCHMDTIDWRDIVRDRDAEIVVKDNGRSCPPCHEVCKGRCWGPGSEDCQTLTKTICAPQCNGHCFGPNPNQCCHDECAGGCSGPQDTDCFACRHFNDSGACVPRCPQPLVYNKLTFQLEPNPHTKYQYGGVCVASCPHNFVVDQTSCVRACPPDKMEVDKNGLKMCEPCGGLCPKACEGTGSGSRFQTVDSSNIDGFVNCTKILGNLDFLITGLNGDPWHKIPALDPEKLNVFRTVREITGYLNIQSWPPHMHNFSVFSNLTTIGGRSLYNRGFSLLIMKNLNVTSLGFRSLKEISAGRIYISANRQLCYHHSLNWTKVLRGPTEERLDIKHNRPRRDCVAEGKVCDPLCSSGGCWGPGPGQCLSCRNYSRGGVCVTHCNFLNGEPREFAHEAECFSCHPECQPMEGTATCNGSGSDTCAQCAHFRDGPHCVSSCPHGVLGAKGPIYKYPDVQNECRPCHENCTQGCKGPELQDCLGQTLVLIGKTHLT

T1 sequence (Q15116 21-170 limits assumed, form in doubt): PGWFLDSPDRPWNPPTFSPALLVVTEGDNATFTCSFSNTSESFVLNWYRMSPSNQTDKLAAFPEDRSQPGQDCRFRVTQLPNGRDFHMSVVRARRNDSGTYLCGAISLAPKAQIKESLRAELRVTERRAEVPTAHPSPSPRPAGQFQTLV
T3 sequence (P07333 20-512 limits assumed): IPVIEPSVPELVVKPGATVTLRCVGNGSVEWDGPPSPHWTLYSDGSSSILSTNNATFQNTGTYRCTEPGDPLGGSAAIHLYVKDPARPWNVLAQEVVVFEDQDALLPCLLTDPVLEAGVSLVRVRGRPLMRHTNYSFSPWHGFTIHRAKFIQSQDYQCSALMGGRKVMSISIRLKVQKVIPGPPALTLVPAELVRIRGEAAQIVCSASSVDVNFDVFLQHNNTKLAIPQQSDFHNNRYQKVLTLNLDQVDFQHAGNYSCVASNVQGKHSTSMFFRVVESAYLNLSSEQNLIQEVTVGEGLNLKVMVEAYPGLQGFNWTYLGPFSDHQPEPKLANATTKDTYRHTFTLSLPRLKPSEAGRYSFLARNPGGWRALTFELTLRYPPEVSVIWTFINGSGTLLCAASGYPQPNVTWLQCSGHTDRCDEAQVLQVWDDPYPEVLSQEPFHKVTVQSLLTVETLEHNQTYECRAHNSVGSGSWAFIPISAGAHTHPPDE

B1: 02-004, bivalent bispecific chimeric antibody that specifically binds to PD1 and CD20 (bispecific antibody, human IgG1, kappa, L234A L235A)
heavy 1: QVQLVQSGGGLVQPGGSLRLSCAASGFTFSSYWMYWVRQVPGKGLEWVSAIDTGGGRTYYADSVKGRFAISRVNAKNTMYLQMNSLRAEDTAVYYCARDEGGGTGWGVLKDWPYGLDAWGQGTLVTVSSASTKGPSVFPLAPSSKSTSGGTAALGCLVKDYFPEPVTVSWNSGALTSGVHTFPAVLQSSGLYSLSSVVTVPSSSLGTQTYICNVNHKPSNTKVDKRVEPKSCDKTHTCPPCPAPEAAGGPSVFLFPPKPKDTLYITREPEVTCVVVDVSHEDPEVKFNWYVDGVEVHNAKTKPREEQYNSTYRVVSVLTVLHQDWLNGKEYKCKVSNKALPAPIEKTISKAKGQPREPQVCTLPPSRDELTKNQVSLSCAVKGFYPSDIAVEWESNGQPENNYKTTPPVLDSDGSFFLVSKLTVDKSRWQQGNVFSCSVMHEALHNHYTQKSLSLSPGK
light 1: QPVLTQPLSVSVALGQTARITCGGNNIGSKNVHWYQQKPGQAPVLVIYRDSNRPSGIPERFSGSNSGNTATLTISRAQAGDEADYYCQVWDSSTAVFGTGTKLTVLQRTVAAPSVFIFPPSDEQLKSGTASVVCLLNNFYPREAKVQWKVDNALQSGNSQESVTEQDSKDSTYSLSSTLTLSKADYEKHKVYACEVTHQGLSSPVTKSFNRGEC
heavy 2: not shown
light 2: DIQMTQSPSSLSASVGDRVTITCRASSSVSYMHWYQQKPGKAPKPLIYAPSNLASGVPSRFSGSGSGTDFTLTISSLQPEDFATYYCQQWSFNPPTFGQGTKVEIKQRQVKPEAWLSSGPSPGPGRLQLVCHVSGFYPKPVWVMWMRGEQEQQGTQLGDILPNANWTWYLRATLDVADGEAAGLSCRVKHSSLEGQDIILYWRGSC
notes: Produced in CHO cells
Kd [1]: 3.49 nM
koff [1]: 0.000753 s⁻¹
kon [1]: 216000 M⁻¹ s⁻¹
binding result [2]: no binding (tested: 1154 nM)
binding result [3]: no binding (tested: 522.5 nM)
binding result [4]: no binding (tested: 420.8 nM)
